Values of other authors, collected in patent US20090215646A1, “SYSTEM AND METHOD OF ANALYTE DETECTION USING DIFFERENTIAL RECEPTORS” (The Board of Regents of the University of Texas Sy, priority 2005, published 2009).

B1: Ovalbumin: glycoprotein analyte obtained commercially (protein, UniProt P01012 2-386, looked up)
Ovalbumin: GSIGAASMEFCFDVFKELKVHHANENIFYCPIAIMSALAMVYLGAKDSTRTQINKVVRFDKLPGFGDSIEAQCGTSVNVHSSLRDILNQITKPNDVYSFSLASRLYAEERYPILPEYLQCVKELYRGGLEPINFQTAADQARELINSWVESQTNGIIRNVLQPSSVDSQTAMVLVNAIVFKGLWEKAFKDEDTQAMPFRVTEQESKPVQMMYQIGLFRVASMASEKMKILELPFASGTMSMLVLLPDEVSGLEQLESIINFEKLTEWTSSNVMEERKIKVYLPRMKMEEKYNLTSVLMAMGITDVFSSSANLSGISSAESLKISQAVHAAHAEINEAGREVVGSAEAGVDAASVSEEFRADHPFLFCIKHIATNAVLFFGRCVSP

Details: isoelectric point

Molecule | pI
Fetuin: glycoprotein analyte obtained commercially | 4.5-4.9
Lysozyme: protein analyte obtained commercially | 9.6-11
B1 | 4.6
